{"source": "IntAct's records for PubMed 21293379", "target": "nsd2_human NSD2 (UniProt O96028)", "sequence (O96028 whole entry)": "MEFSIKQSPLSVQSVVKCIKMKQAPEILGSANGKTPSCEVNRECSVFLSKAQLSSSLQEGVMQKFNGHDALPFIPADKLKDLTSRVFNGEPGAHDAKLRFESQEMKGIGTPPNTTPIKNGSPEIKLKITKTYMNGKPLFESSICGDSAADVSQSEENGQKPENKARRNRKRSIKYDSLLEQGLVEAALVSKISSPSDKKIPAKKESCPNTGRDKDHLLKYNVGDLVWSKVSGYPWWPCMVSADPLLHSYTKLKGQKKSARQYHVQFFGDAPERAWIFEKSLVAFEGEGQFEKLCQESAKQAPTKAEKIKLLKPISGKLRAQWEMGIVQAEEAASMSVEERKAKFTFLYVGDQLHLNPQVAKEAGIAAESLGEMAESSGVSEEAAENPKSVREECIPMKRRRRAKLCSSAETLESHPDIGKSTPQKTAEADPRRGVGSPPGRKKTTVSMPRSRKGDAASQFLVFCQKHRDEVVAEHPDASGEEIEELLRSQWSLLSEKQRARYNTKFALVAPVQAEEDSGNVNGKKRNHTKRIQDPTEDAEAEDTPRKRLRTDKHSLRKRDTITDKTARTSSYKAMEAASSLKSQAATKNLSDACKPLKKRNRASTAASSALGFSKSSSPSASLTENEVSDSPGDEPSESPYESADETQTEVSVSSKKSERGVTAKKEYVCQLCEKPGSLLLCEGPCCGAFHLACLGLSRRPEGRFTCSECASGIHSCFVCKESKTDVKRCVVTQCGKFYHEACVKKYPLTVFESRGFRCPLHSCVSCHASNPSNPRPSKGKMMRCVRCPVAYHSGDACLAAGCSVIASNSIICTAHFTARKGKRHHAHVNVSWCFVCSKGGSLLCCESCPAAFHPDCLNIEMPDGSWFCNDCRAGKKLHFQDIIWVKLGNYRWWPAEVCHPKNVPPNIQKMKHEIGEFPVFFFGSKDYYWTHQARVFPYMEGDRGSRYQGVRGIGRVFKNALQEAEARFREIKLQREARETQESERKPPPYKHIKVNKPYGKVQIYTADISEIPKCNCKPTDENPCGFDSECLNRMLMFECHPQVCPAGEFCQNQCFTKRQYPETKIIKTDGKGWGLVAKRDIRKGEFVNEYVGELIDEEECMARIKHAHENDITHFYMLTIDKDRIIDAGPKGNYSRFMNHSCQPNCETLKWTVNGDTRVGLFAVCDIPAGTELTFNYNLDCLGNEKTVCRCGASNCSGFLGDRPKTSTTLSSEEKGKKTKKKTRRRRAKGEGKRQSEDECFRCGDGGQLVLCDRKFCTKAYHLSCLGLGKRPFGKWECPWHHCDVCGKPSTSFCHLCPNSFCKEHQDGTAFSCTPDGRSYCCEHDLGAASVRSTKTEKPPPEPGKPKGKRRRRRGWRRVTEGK"}
{"substance": "Mediator of DNA damage checkpoint protein 1 (Homo sapiens), Q14676 K1936M", "values": [{"measurement": "effect of a mutation on the interaction", "value": "disrupting interaction"}]}
